The assay deals with DBD-FKBP12 (three tandem copies) (UniProt P62942). Description: cell-based or functional assay.

Our source for the fold increase of luciferase expression, split transcription factor, rapalog values is patent publication US20220380801A1, “TRIPARTITE SYSTEMS FOR PROTEIN DIMERIZATION AND METHODS OF USE” (priority 2019, published 2022).

Chain of DBD-FKBP12 (three tandem copies) (P62942 other isoform, or with tags, fused parts or gaps limits assumed): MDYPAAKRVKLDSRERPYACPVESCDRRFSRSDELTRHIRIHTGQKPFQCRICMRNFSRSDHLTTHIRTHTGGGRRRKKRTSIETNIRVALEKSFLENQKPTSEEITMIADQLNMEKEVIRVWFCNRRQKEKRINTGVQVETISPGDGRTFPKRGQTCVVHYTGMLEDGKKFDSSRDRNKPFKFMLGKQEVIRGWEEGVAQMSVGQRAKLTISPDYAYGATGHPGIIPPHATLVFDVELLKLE

In turn, FRB-AD (from UniProt P42345 2021-2113) registered a fold increase of luciferase expression, split transcription factor, rapalog of 30 fold.
